Reference: patent US20220016205A1, “METHODS OF OVERCOMING RESISTANCE TO IMMUNE CHECKPOINT INHIBITORS” (Board of Regents, The University of Texas System, priority 2018, published 2022)

Assays:
RAW 264.7 cells [1] = assay: qPCR of p38α, IL-1α, IL-1β, TNF-α, RANTES in RAW 264.7 cells treated with BMP7 or BMP7 plus follistatin; assay type: cell-based, murine; details: BMP7 plus follistatin versus BMP7 only, 24 or 48 hours (FIG. 3H)
Excerpt: (§1) Quantitative polymerase chain reaction (qPCR). Total RNA was isolated from cells and tumors with Triazol (Life Technologies) according to the manufacturer's protocol. For studies of BMP7, p38α, IL-1α, IL-1β, TNF-α, RANTES, IL-2, and IFN-γ expression, mRNA was retrotranscribed with the iScript™ gDNA Clear cDNA Synthesis Kit (BioRad) and analyzed by qPCR using SYBR Green (Life Technologies) with specific primers according to the manufacturer's protocol. The comparative Ct method was used to calculate the relative abundance of mRNAs compared with ACTB (beta-actin) expression for cancer cells or CD45 expression for immune cells.
(§2) Co-culture experiments and treatments. Viable cells were counted with a hemocytometer (0.4% Trypan blue solution) and diluted to 40,000 cells per well in 24-wells plates. Cells from 344SQP, 344SQR, 344SQ ctrl, or 344SQ-shBMP7 tumors were seeded at the top inserts (24-mm Transwell with 0.4-μm pore polycarbonate membrane insert, Sigma-Aldrich), and RAW 264.7 or CD4^+ T cells were seeded at the bottom of the transwell system. […] RNA was then isolated from RAW 264.7 or CD4^+ T cells and analyzed for p38α, IL-1α, IL-1β, TNF-α, RANTES, IL-2 and IFN-γ expression with qPCR.

CD4^+ T cells [2] = assay: qPCR of p38α, IFN-γ, IL-2 in CD4+ T cells co-cultured with 344SQR cells plus follistatin; assay type: cell-based, mouse; details: 344SQR co-culture plus follistatin versus 344SQR without follistatin, 24 hours (FIG. 4G)
Excerpt: as §1
(§3) Co-culture experiments and treatments. Viable cells were counted with a hemocytometer (0.4% Trypan blue solution) and diluted to 40,000 cells per well in 24-wells plates. […] RNA was then isolated from RAW 264.7 or CD4^+ T cells and analyzed for p38α, IL-1α, IL-1β, TNF-α, RANTES, IL-2 and IFN-γ expression with qPCR.
(§4) Next, CD4^+ T cells were co-cultured with 344SQP or 344SQR cells, and 344SQR ctrl or 344SQR shBMP7 cells, and the expression of p38α, IFN-γ, and IL-2 analyzed. […] To confirm that these findings depended on BMP7 and not on some other secreted molecule, CD4^+ T cells were treated with BMP7 with or without follistatin and p38α, IFN-γ, and IL-2 expression evaluated. […]

peritoneal macrophages = assay: qPCR of p38α, IL-1α, IL-1β, TNF-α, RANTES in peritoneal macrophages treated with BMP7 or BMP7 plus follistatin; assay type: cell-based, mouse; details: BMP7 plus follistatin compared with BMP7 only
Excerpt: as §1, §2

CD4^+ T cells [3] = assay: qPCR of p38α, IFN-γ, IL-2 in activated CD4+ T cells treated with BMP7 or BMP7 plus follistatin; assay type: cell-based, mouse; details: BMP7 plus follistatin compared with BMP7 only, 24 hours (FIG. 4F)
Excerpt: as §1
as §2, with “system. CD4^+ T cells were isolated from splenocytes by using Dynabeads Untouched Mouse CD4 Cells Kit (Thermo Fisher Scientific—Life Technologies, Catalog #11416D) and activated with LEAF purified anti-mouse CD3c antibody (5 μg/mL) and LEAF purified anti-mouse CD28 antibody (1 μg/mL) (Biolegend).” for “system.”
as §4

RAW 264.7 cells [4] = assay: Immunofluorescence of p38a and SMAD1/5/9 phosphorylation in RAW 264.7 cells treated with BMP7 or BMP7 plus follistatin; assay type: cell-based, murine; details: 24 hours (FIG. 2K)
Experimental: Immunofluorescence analysis. RAW 264.7 cells were counted with a hemocytometer (0.4% Trypan blue solution), diluted to 200,000, and seeded in 4-well culture slides (Lab-Tek, Catalog #154917), and allowed to attach overnight. Cells were treated with 250 ng BMP7 (R&D Systems, Catalog #5666-BP-010) or follistatin (R&D Systems, Catalog #769-FS-025) and incubated for 24 h, and then fixed with 1% paraformaldehyde for 10 minutes, followed by a 10-minute wash in 70% ethanol at room temperature. Cells were then treated with 0.1% NP40 in PBS for 20 minutes, washed in PBS four times, and then blocked with 5% bovine serum albumin in PBS for 30 minutes. Cells were then incubated with p38a MAPK (L53F8) (Cell Signaling, Catalog #9228) and Phospho-Smad1 (Ser463/465), Smad5 (Ser463/465), and Smad9 (Ser465/467) (D5B10) (Cell Signaling, Catalog #13820) in 5% bovine serum albumin in PBS overnight according to the manufacturer's protocol. […] Slides were examined with a fluorescence microscope (Leica, Buffalo Grove, Ill.), and images were captured by a charge-coupled device camera and imported into the Advanced Spot Image analysis software package.

CD4^+ T cells [5] = assay: Western blotting of p38a and SMAD1/5/9 phosphorylation in CD4+ T cells treated with BMP7 or BMP7 plus follistatin; assay type: cell-based, mouse; details: BMP7 plus follistatin versus BMP7 alone, 1 hour (FIG. 4A)
Experimental: Protein extraction and Western blot analysis. Total protein was extracted by using NP40 lysis buffer (0.5% NP40, 250 mmol/1 NaCl, 50 mmol/1 HEPES, 5 mmol/1 ethylenediaminetetraacetic acid, and 0.5 mmol/1 egtazic acid) supplemented with protease inhibitors cocktails (Sigma-Aldrich). Lysates were centrifuged at 10,000×g for 10 minutes, and the supernatant was collected for experiments. Protein lysates (40 μg) were resolved on denaturing gels with 4-20% sodium dodecyl sulfate-polyacrylamide and transferred to nitrocellulose membranes (Bio-Rad Laboratories, Hercules, Calif.). Membranes were probed with primary antibodies directed against BMP7 (Abcam, Catalog #ab56023), Phospho-Smad1 (Ser463/465)/Smad5 (Ser463/465)/Smad9 (Ser465/467) (Cell Signaling Technologies, Catalog #13820), p38 MAPK (Cell Signaling Technologies, Catalog #8690), Vinculin (Cell Signaling Technologies, Catalog #13901), β-Actin (Cell Signaling Technologies, Catalog #3700), and a secondary antibody conjugated with horseradish peroxidase (Amersham GE Healthcare). […]
as §3

B1: follistatin: BMP7 antagonist protein, natural inhibitor of BMP7 (R&D Systems, Catalog #769-FS-025) (protein, UniProt P19883 30-344, looked up)
Follistatin: GNCWLRQAKNGRCQVLYKTELSKEECCSTGRLSTSWTEEDVNDNTLFKWMIFNGGAPNCIPCKETCENVDCGPGKKCRMNKKNKPRCVCAPDCSNITWKGPVCGLDGKTYRNECALLKARCKEQPELEVQYQGRCKKTCRDVFCPGSSTCVVDQTNNAYCVTCNRICPEPASSEQYLCGNDGVTYSSACHLRKATCLLGRSIGLAYEGKCIKAKSCEDIQCTGGKKCLWDFKVGRGRCSLCDELCPDSKSDEPVCASDNATYASECAMKEAACSSGVLLEVKHSGSCNSISEDTEEEEEDEDQDYSFPISSILEW
RAW 264.7 cells [1]
  expression of p38a and p38α-regulated cytokines and chemokines: higher expression
CD4^+ T cells [2]
  expression of p38α, IFN-γ, and IL-2: higher expression
Peritoneal macrophages
  levels of p38α, IL-1α, TNF-α, IL-1β, and RANTES: higher levels
CD4^+ T cells [3]
  expression of p38α, IFN-γ, and IL-2: higher expression
RAW 264.7 cells [4]; BMP7 plus follistatin compared with BMP7 alone
  p38a expression: higher
RAW 264.7 cells [4]; BMP7 plus follistatin versus BMP7 alone
  SMAD1/5/9 activation: lower
CD4^+ T cells [5]
  SMAD1/5/9 activation: lower
  p38a expression: higher
